Values quoted from earlier work as cited in PMC9360543.

How the values were obtained:
GRP78 (Homo sapiens) = GRP78 (Homo sapiens) (UniProt P11021)
[1] = biological target: Integrin αvβ5 (Homo sapiens) (UniProt P06756); assay: solid-phase ELISA-based binding assay
Chain of UniProt P06756 (P06756 31-992, chain 1 of 2): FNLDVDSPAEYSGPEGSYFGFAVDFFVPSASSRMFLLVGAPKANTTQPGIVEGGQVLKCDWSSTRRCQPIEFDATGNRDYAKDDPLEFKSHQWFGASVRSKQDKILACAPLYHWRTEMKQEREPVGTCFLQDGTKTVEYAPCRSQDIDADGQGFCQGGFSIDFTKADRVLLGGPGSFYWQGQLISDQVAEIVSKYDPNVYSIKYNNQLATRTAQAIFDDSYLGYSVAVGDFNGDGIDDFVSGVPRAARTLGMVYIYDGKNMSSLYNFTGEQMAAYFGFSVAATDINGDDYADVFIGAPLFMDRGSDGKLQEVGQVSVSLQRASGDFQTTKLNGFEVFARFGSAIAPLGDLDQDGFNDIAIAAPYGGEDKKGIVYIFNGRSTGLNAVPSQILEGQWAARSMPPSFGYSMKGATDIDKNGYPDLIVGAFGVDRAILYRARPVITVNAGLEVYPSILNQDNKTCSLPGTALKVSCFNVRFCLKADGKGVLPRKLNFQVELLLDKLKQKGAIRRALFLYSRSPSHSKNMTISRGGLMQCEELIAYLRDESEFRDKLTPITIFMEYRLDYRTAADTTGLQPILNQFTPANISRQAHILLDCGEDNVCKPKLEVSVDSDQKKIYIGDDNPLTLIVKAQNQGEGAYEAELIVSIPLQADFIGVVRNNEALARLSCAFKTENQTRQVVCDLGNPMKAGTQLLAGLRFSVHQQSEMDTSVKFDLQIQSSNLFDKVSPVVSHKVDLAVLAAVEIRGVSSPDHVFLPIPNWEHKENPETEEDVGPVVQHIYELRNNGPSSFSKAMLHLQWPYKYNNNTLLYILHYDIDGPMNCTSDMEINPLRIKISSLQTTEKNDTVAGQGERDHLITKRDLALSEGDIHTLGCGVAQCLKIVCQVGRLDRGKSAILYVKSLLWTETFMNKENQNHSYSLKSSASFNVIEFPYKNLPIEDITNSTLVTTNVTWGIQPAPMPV
Chain of UniProt P06756 (P18084 24-719, chain 2 of 2, further chain): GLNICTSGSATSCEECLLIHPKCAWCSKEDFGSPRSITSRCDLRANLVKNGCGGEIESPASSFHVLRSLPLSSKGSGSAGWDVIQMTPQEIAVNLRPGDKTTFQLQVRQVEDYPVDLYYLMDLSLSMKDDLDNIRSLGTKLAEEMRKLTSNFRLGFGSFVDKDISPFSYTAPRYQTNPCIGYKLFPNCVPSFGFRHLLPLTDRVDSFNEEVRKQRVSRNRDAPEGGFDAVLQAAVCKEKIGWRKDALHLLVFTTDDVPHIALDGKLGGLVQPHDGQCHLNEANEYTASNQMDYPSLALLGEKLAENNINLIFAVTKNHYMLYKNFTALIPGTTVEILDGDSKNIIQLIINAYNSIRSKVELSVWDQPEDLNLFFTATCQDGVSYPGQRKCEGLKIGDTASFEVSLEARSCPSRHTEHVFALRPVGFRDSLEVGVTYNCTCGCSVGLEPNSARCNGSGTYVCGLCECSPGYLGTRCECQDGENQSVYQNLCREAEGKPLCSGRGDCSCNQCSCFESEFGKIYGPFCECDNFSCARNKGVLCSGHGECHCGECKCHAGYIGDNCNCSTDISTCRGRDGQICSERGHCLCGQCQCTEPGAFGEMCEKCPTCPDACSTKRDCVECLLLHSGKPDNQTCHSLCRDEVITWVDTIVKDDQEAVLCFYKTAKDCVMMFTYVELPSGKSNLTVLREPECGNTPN

Chain of UniProt P11021 (P11021 19-654): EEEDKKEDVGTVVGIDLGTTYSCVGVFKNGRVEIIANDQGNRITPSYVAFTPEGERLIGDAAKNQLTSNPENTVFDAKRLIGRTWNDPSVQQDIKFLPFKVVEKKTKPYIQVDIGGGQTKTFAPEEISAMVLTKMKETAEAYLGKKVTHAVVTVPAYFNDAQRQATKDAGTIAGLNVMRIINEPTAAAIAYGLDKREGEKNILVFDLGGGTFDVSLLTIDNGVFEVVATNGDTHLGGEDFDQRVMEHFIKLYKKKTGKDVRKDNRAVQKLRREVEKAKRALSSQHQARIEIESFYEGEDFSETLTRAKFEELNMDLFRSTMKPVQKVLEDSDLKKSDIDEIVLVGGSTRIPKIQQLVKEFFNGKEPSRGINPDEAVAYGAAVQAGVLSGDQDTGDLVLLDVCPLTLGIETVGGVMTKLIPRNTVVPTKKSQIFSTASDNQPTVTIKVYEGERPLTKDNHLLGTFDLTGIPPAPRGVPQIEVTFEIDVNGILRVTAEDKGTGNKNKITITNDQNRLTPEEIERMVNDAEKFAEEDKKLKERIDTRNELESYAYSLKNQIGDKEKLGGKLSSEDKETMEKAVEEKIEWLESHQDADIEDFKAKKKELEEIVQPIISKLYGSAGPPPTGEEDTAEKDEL

- Kd (GRP78 (Homo sapiens)): 0.00858 µM
- Kd [1]: 40 µM
Substance: Isthmin-1 (from UniProt B1AKI9)
